The results in this text go back to publication PMC3942532 (2014).

The target of the test is dynorphin A-(1-13)-OH 1-13 (Homo sapiens, UniProt P01213). The experiment in a line: radioligand competition. On the technique in general: Displacement assays read how much labelled ligand stays bound in the presence of the test substance.

As usually defined, the Ki is a measure of affinity in units of concentration, obtained from inhibition or displacement.

B1: mu opioid receptor (protein)
chain: MDSSTGPGNTSDCSDPLAQASCSPAPGSWLNLSHVDGNQSDPCGLNRTGLGGNDSLCPQTGSPSMVTAITIMALYSIVCVVGLFGNFLVMYVIVRYTKMKTATNIYIFNLALADALATSTLPFQSVNYLMGTWPFGTILCKIVISIDYYNMFTSIFTLCTMSVDRYIAVCHPVKALDFRTPRNAKIVNVCNWILSSAIGLPVMFMATTKYRQGSIDCTLTFSHPTWYWENLLKICVFIFAFIMPVLIITVCYGLMILRLKSVRMLSGSKEKDRNLRRITRMVLVVVAVFIVCWTPIHIYVIIKALITIPETTFQTVSWHFCIALGYTNSCLNPVLYAFLDENFKRCFREFCIPTSSTIEQQNSTRVRQNTREHPSTANTVDRTNHQLENLEAETAPLP
Molecule B1 gave a Ki of 4 nM.
